# Results taken from PMC7253548.
# Molecular target: OsHsfB4d (Oryza sativa (rice; cv. Zhonghua 11?)) (UniProt Q10KX8)
# Experiment: EMSA
# Details: room temperature 20 min, buffer
# Sequence of OsHsfB4d (Oryza sativa (rice; cv. Zhonghua 11?)) (Q10KX8 whole entry): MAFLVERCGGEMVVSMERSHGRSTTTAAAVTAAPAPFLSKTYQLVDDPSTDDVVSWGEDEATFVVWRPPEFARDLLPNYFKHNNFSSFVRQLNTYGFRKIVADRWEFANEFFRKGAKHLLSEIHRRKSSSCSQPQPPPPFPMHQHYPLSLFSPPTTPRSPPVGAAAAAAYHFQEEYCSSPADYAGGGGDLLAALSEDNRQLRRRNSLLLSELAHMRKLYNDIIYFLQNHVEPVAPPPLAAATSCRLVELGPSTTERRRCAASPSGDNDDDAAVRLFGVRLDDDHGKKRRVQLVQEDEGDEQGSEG
sequence,measurement,value
CGTCGGAATAGCTGCGAATTTGGAGGTGGAACGATCGGACTTCTCTGAGTTCTTACTCTGATGTTTGCTTGGTTTGCTTTGCGTTTTCTTCGTGGTTCTGCCGGTGAAGGGGAGCGCGGTTTTATAGAGGGCAGCGAGAGGGCATCGTGGAGCTTGGAATAAGCTTCTAGAAACTTCCAGTTTGCCCCCGCATGGGCTAGAACCTAGTACGAGATAGCTTGGGCTAGAAGTTTACACCACCGGTAGCGGGGTGGGCTGTAGCCCATAGCGTCCAG (double strand),binding,binds
